Reference: the supplement of paper PMC7877785
± gives the uncertainty stated by the source.

Experiment: self-splicing fitness, log relative to wild type (ln ratio); higher = more splicing; Tetrahymena group I intron in knt gene, E. coli kanamycin selection, DiMSum; sequences stand for … in CUCUCU…GGAGGGAAAAGUUAUCAGGCAUGCACCUGGUAGCUAGUCUUUAAACCAAUAGAUUGCAUCGGUUUAAAAGGCAAGACCGUCAAAUUGCGGGAAAGGGGUCAACAGCCGUUCAGUACCAAGUCUCAGGGGAAACUUUGAGAUGGCCUUGCAAAGGGUAUGGUAAUAAGCUGACGGACAUGGUCCUAACCACGCAGCCAAGUCCUAAGUCAACAGAUCUUCUGUUGAUAUGGAUGCAGUUCACAGACUAAAUGUCGGUCGGGGAAGAUGUAUUCUUCUCAUAAGAUAUAGUCGGACCUCUCCUUAAUGGGAGCUAGCGGAUGAAGUGAUGCAACACUGGAGCCGCUGGGAACUAAUUUGUAUGCGAAAGUAUAUUGAUUAGUUUUGGAGUACUCGUGGUCG
Summary of the method: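 A randomised library covering all eight P1ex-region intron nucleotides was built with the intron in the knt kanamycin-resistance gene on pET-22b(+) and held in E. coli BL21(DE3). Cells were grown overnight at 37°C or 30°C on LB agar, with or without 25 μg/mL kanamycin, plus 100 μg/mL carbenicillin, 50 μM IPTG and 0.2% rhamnose, and pooled colonies were amplicon-sequenced on an Illumina HiSeq 2500. DiMSum fitness is the error-weighted combination of wild-type-normalised replicate fold changes, kanamycin versus none.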

Sequence | self-splicing fitness (ln) (30 °C) | self-splicing fitness (ln) (37 °C)
UAAGAGCAAUAUUACGGUUG | -3.21 ± 0.2 | -1.87 ± 0.18
GUGCAGCAAUAUUACGAAAA | -2.34 ± 0.19 | -2.49 ± 0.22
AAUAAGCAAUAUUACGUCCG | -1.15 ± 0.11 | -0.82 ± 0.15
UGGAAGCAAUAUUACGCCUU | -2.28 ± 0.31 | –
CACGAGCAAUAUUACGUUUG | -3.57 ± 0.13 | -2.17 ± 0.13
ACCAAGCAAUAUUACGAUUU | -1.51 ± 0.041 | -1.26 ± 0.054
CUGGAGCAAUAUUACGUACU | – | -2.19 ± 0.43
UCAAAGCAAUAUUACGAAUC | – | -2.76 ± 0.38
CGACAGCAAUAUUACGCACC | -0.97 ± 0.21 | -1.79 ± 0.21
GAGGAGCAAUAUUACGGGGA | -1.86 ± 0.23 | -3.17 ± 0.4
UAUCAGCAAUAUUACGACCA | -0.0276 ± 0.12 | 0.439 ± 0.16
UAAGAGCAAUAUUACGCCGU | – | -2.26 ± 0.43
UAAGAGCAAUAUUACGAACA | -2.71 ± 0.42 | -1.26 ± 0.27
AAUUAGCAAUAUUACGACAU | -0.0913 ± 0.013 | -0.0165 ± 0.033
AUCAAGCAAUAUUACGCUCU | -0.452 ± 0.07 | 0.0492 ± 0.082
GUCUAGCAAUAUUACGCGUG | -0.894 ± 0.058 | -0.777 ± 0.072
AUUUAGCAAUAUUACGGGUA | -2.72 ± 0.3 | -1.17 ± 0.17
AUUCAGCAAUAUUACGAGAG | -2.65 ± 0.11 | -1.38 ± 0.1

Sequence | self-splicing fitness (ln) (30 °C) | self-splicing fitness (ln) (37 °C)
AUCUAGCAAUAUUACGCUUU | -2.3 ± 0.17 | -0.151 ± 0.12
GGAAAGCAAUAUUACGUUAC | -2.63 ± 0.16 | -0.204 ± 0.11
CGUCAGCAAUAUUACGGGAC | -3.95 ± 0.25 | -1.73 ± 0.23
ACACAGCAAUAUUACGCAGA | -2.48 ± 0.16 | -1.75 ± 0.12
CUUAAGCAAUAUUACGACCG | 0.42 ± 0.14 | -0.4 ± 0.16
CUUUAGCAAUAUUACGUACC | – | -1.68 ± 0.3
CCAUAGCAAUAUUACGUAAU | -3.14 ± 0.15 | -3.15 ± 0.23
UACCAGCAAUAUUACGUACC | -2.33 ± 0.11 | -2.23 ± 0.17
GGAAAGCAAUAUUACGAACA | -1.34 ± 0.15 | -0.362 ± 0.15
CUCGAGCAAUAUUACGGGUC | -3.33 ± 0.28 | -1.77 ± 0.31
CAAUAGCAAUAUUACGUACC | -4.73 ± 0.32 | -3.09 ± 0.32
UGACAGCAAUAUUACGUAUA | -2.19 ± 0.092 | -0.776 ± 0.096
AGAGAGCAAUAUUACGUAAA | -3.76 ± 0.31 | -3.12 ± 0.31
AAUAAGCAAUAUUACGUGCC | – | 0.782 ± 0.26
GGGGAGCAAUAUUACGAUUG | -2.02 ± 0.45 | -1.67 ± 0.45
UUGUAGCAAUAUUACGACGU | -1.48 ± 0.09 | -0.671 ± 0.12
UGCGAGCAAUAUUACGUUAG | -2.68 ± 0.27 | -2.01 ± 0.33
